The nature of this data set: label from the status in PepcDB records.
In the case of “MDELLEKAKKVREAWDVLRNATTREKNKAIKKIAEKLDERRKEILEANRIDVEKARERGVKESLVDRLALNDKRIDEMIKACETVIGLKDPVGEVIDSWVREDGLRIARVRVPIGPIGIIYESRPNVTVETTILALKSGNTILLRGGSDALNSNKAIVSAIREALKETEIPESSVEFIENTDRSLVLEMIRLREYLSLVIPRGGYGLISFVRDNATVPVLETGVGNCHIFVDESADLKKAVPVIINAKTQRPGTCNAAEKLLVHEKIAKEFLPVIVEELRKHGVEVRGCEKTREIVPDVVPATEDDWPTEYLDLIIAIKVVKNVDEAIEHIKKYSTGHSESILTENYSNAKKFVSEIDAAAVYVNASTRFTDGGQFGFGAEIGISTQRFHARGPVGLRELTTYKFVVLGEYHVRE”, the protein production result is given as “not failed”. As for “MDERNVSKPAMRGHKLVLNNRTASLVTGVKDVLSFDLNEVLLETEQGMLMVKGTDLHVNRLSLEKGEVDLSGNIDSIAYSDVHAEQKQGENLFARLFR”, the protein production result is listed as “failed”. For the sequence “MDESAALRAFQDALRTQRPEFGQFFLARLLGLDISYPDGQCLIVFEPQDFLFNPQGSLHGGIIATVMDISMGHLLNHVQGAGLTLEMKTQYLKAVRQGTVYCRGEFLQRGRSVSFLKSTLTDAQGEPLAMATSTWKALSPLEHHHHHH”, the protein production result is on record as “not failed”. “MDETVAEFIKRTILKIPMNELTTILKAWDFLSENQLQTVNFRQRKESVVQHLIHLCEEKRASISDAALLDIIYMQFHQHQKVWDVFQMSKGPGEDVDLFDMKQFKNSFKKILQRALKNVTVSFRETEENAVWIRIAWGTQYTKPNQYKPTYVVYYSQTPYAFTSSSMLRRNTPLLGQELEATGKIYLRQEEIILDITEMKKACN”: the protein production entry is “failed”. Turning to “MDFDLRWLFIAASLGLCAWAGWQFVHRLARARLLGDVPTSRIRSAAQGFVELYGVLEEGPEGPLQAPLTGKPCLWWRYRIEVEEKRSGREKAWRTVDKGASESPFSLRDATDACLVDPRGAEVRPLTQQRWEAFREAPIDTLRLLESFGTLVGGERLYRYTEERLHAGEPLYALGEFRSSGGGRQGLDAERAQGAVIREWKGDFHGLLARFDSDGNGELDEREWNRVRLAARLEAEDRHRASSAAPTRHRLGKPGEAHPFILSSQGEDDLAVQLRRQAAGAALLCLGSALLAGWLFSRLF”, the protein production entry is listed as “failed”. Regarding “MDFDLWWLLAIPLVFGLGWVAARLDARQLLTEQASLPRSYFKGLNFLLNEQPDKAIDAFIEVARLDPETTELHFALGSLFRRRGETERAIRVHQNLVNRPDLPANERDHALYELGQDFLRAGLLDRAEESLRMLMEGVFAEPAKRVLLELYEVEKEWRKAIDAARELQTLQGQDYSVQIAQFCCELAQESLQRKDVSAAVEWLERALQENPKNVRATIQLGDVALGKGDTEGAIKRWRSIEQQNPAFLPLVAERLMKAYAQLGRAAEGLAWLRSKMDARLGPELLDVVYRYELDVHGIDDAVALMREQIRRQPSLMALTRLVEAEATRASEAVSHEAAAVAAPISDSALADPVEAGSNADIQRAQDLGAIRDLLQSRTRNLARYTCQECGFRARLFYWQCPGCNRWETYAPRRTEALGGSGGASM”, the protein production result is “failed”.

As to “MDFDTIQIDYEKEETVMIGRAADKIFTRVFIFLIMTVYFWIYTVAGLVVLGIGPAFRTVTEMHMDKQWDYRLYHFKEGWQRFKRHFWQMNLHTWLFLGVGAVLAYNLYLSLSIHTLWIIFIQFIIVFALILDFSLAIFTVMLRSRYDVAFKDAIKLAIVQFFSNFTQLLTFIIGTIVLIVISLKWPGMILFLSPGIYMVGADRLSRRWYDKIDKMLGAV”, the protein production result is recorded as “failed”.

With “MDFECQFVCELKELAPVPALLIRTQTTMSELGSLFEAGYHDILQLLAGQGKSPSGPPFARYFGMSAGTFEVEFGFPVEGGVEGSGRVVTGLTPSGKAASSLYIGPYGEIEAVYDALMKWVDDNGFDLSGEAYEIYLDNPLEHHHHHH”, the protein production result is listed as “failed”. On to “MDFKTVMQELEALGKERTKKIYISNGAHEPVFGVATGAMKPIAKKIKLNQELAEELYATGNYDAMYFAGIIADPKAMSESDFDRWIDGAYFYMLSDYVVAVTLSESNIAQDVADKWIASGDELKMSAGWSCYCWLLGNRKDNAFSESKISDMLEMVKDTIHHSPERTKSAMNNFLNTVAISYVPLHEKAVEIAKEVGIVEVKRDNKKSSLLNASESIQKELDRGRLGFKRKYVRC”, for which the protein production entry was “not failed”.

As to “MDFLGILCLLILATTLAGHFAHRAGIPAVIGEILVGVILGPALLNWVHLTTLVQTFSDIGVVVLMFIGGLESNLALLRKYLRPAIIVAIIGVIFPVVIMGLASRFFQFSWFESLFIGVIFSATSVSISVEVLKEFKVLDTKEGATILGAAVADDIIGVILLSIMIAMMGGQSGVAQTNLGIVLLEQVGFFIGVFIVIKWVAPYLMRLSDHLLMAASPTIMAIIICLALAWLAELVGLSGAIGAFFAGVAIAQTDYQHVVDVSIEPVGYTTFIPLFFVSVGLNMTFKGVWQSLPFIVVMTVLGVLTKLWGCGLGAKLNGFSRHSNYLVGAGMISRGEMALITAQIGFSAHLLSNDYYSDIILVIIVVTMIAPFVLKNAIHRAGQVTATHSIIEEH”, the protein production result is given as “failed”. On to “MDFLVAHFNLLRGLHILAVIAFMAGMLYLPRLFVYHTKATPGSQMDETFKVMERRLLRGIINPASIATAVFGLGLILADAQIRGWDFLLQPWMIAKLVALVGLYGFHGFLSASRKKFERGENVRSEKFWRMVNEIPFVLAIVIVMSVTTKYLNH”, for which the protein production result is recorded as “failed”. “MDFNDSAQAIILNVGGEKNINSLIHCSTRLRFTLNDFAKADLEKLKTVDGVLGAVIAGGQCQVIIGNDVVEMFDAVQALLGNSTQQNTARGPKQSWGKVVLDFIIGVFQPLVPAIAGGGILKAVLMLLAMFGWISDKSQTYQILNLVGGAPLYLLPILVAITTAQKLKVNPLVAVSTVGVLILPDLVAMLTKGTTLFGLHVTNVTYSSQVFPAILCVLFYALMERFFTKYSPKPIRIFFVPMMSMLITAPITLLFLGPLGYVVGEGFVSVILFLNTHLGWVATALLAGVLPFMVATGMHKPMIPYVVSTFSTVGKESLYLPASLAHNISESGTCFAITLRTKDTKLRAVALSAGISALFGITEPALYGVTLQHKRALISVITGGVIGGAYVGIAGLSGFTIVGPGLASLPMFVDKSNPANLIHALIGFGISFVVSFVIGLIIWKNDEEISSASDTGEATTTVVAEDLMAPVAGKILSLADVPDDVFSQGLIGQGIAVEPSEGSLIAPTDGTIEMVYETKHALGMRTDNGAELLFHIGLDTVQLNGKYFESHVQVGQHVQAGELLETFDVAKIKAAGYNPITMMVVTNQDSYTVAVDESNETLDNQSVMNIAKLGV”: the protein production result is given as “failed”. Consider “MDFNPIDLILHLDTYLAMLVSNYGVWIYAILFLVIFCETGLVVTPFLPGDSLLFIAGAICATGGMDPWLLGGLLMVAAITGDSTNYVIGRTLGKRLFSNPDSKVFRRDYLDRTHEFYERHGGKTVTLARFLPIVRTFAPFVAGMAKMHYPRFVMFSVVGTVAWVGGLVTLGYFFGNVPFIKKNLSLLVIGIILLSLLPMILGFIRHRLQASAAKQAKAQSD”, for which the protein production result is recorded as “failed”. For “MDFPCLWLGLLLPLVAALDFNYHRQEGMEAFLKTVAQNYSSVTHLHSIGKSVKGRNLWVLVVGRFPKEHRIGIPEFKYVANMHGDETVGRELLLHLIDYLVTSDGKDPEITNLINSTRIHIMPSMNPDGFEAVKKPDCYYSIGRENYNQYDLNRNFPDAFEYNNVSRQPETVAVMKWLKTETFVLSANLHGGALVASYPFDNGVQATGALYSRSLTPDDDVFQYLAHTYASRNPNMKKGDECKNKMNFPNGVTNGYSWYPLQGGMQDYNYIWAQCFEITLELSCCKYPREEKLPSFWNNNKASLIEYIKQVHLGVKGQVFDQNGNPLPNVIVEVQDRKHICPYRTNKYGEYYLLLLPGSYIINVTVPGHDPHITKVIIPEKSQNFSALKKDILLPFQGQLDSIPVSNPSCPMIPLYRNLPDHSAATKPSLFLFLVSLLHIFFK”, the protein production result is “not failed”. With “MDGEILRDPTRRFVLQSGAAVGGGLLLSFTMSSEGQAAGDTKVNAYVRIASDGKVTIASKVPEVGQGIKTALPMLIAEELDVDWSAVTVEQAIADTKIYGRQVAGGSMATTLEYDGLRRVGATVRALLIAAAAARWNVPADSLKTEPGFVVDAAGKRRASYGELAQAAAALTPPDPKSLTLKDPKAFRIIGKSHKSQNLDAIVTGQPTYGIDVRLPGMLFAAFAKAPVYGAKVASVDLALAKAVKGVRDAFIIEGGTNLQGLLPGVAVVADSWWAARKGREALQIQWAEHPTASQSTVGFAAKAAELAAAPPHRNLHNDGDVEAALKGAAKTVSAAYSYPFIAHAALEPQNCTAHVKDGKVEIWAPTQNPESGRALVARALNVDPSAITIHLIRGGGGFGRRLMNDYMVEAAAIAAKVNAPVQLIWTREDDMQHDFYRPGGWHNLTAGLDAKGGLTAWKNHFITFGEGETFNTAAAMNATQFPCRAVANYRHDVSVMPLGFPTGFLRAPGNNAFGFVIQSFTDELALAAGKDPVAFRRELLGEPRLLGEPGKGDSFHTGRMRGVLDLVAEMSGWGRKVPKGTGLGVACHYSHLGYVAVVMQVTVKDGAVKVDKVWAAADVGRQIVNPSGADQQMQGSILDAIGSTLYQSITFENGAATNSNFGDFPLLRMADAPPVEVRYKLSDNNPTGLGEPAYPPAPAALCNAIFAATGKRIRSLPIGDQLA”, the protein production entry is given as “failed”. For the sequence “MDGHSKNHCSPVGRYFPMPLDRRFLPGWLAFLALLAICVFPLMAKAAGVPALVGRVNDYAGMISPQARSIIDQKLKALEAEDGTQVAVLTVPSLDGQPIEEFSIKVAEAWKIGQKGRDNGILFIVSKNDRAMRIEVGYGLEGRLTDLQAGRITRDVIKPAFKSGDYDKGFIDGVDAIVASVKGEYKAPKRKNDDGAPSPFLIFIILFVLFVASRFMRFFGGGGGPFGFGGPGGGFFPGGGFGGGGGSSDDGGFSGGGGDFGGGGASDNW”, the protein production entry was “failed”. As to “MDGRRMVQGLLTASLLTSIGGDLEVLASRMDLQFQRPVYTGETLVCELTVVSADPHTDGGVALVGDVAVRRVNRDDNSGQADTAAPLEHHHHHH”, the protein production entry is “failed”. As for “MDHAAVLALFDRDMREGARPDGPGARIERVPGVVRQVASEHGWNGVVWSGLDEASADAAIAEQQRYFAGLGREFEWKLYGHDLPEDLGRRLRAAGFTAAPEETLMVAEVADLTLDVEPPDGVRIVPVTDRAGVDLVADVHEKAFGTDSTRMRHQLLAQVTDDPDAVVAVVALAGDEPVSAARMELVPGTRFAGLWGGGTVEGERGRGIYRALVAHRAKVAADRGYRYVQVDATSQSRPVLARLGFEPLTTTTPYVSP”, the entry is “not failed”; as for “MDHDKTGCQSPPEGPKLCTNNCGFFGSAATMNMCSKCHKDMLFQQEQGAKFASAVSGTSSSSNIIKETFTAALVDIETKSVEPMTVSVQPSSVQVVAEVVAPEEAAKPKGPSRCTTCNKRVGLTGFKCRCGSLFCGTHRYADVHDCSFNYHAAAQEAIAKANPVVKAEKLDKI”, “failed”. Under “MDIDLSAFHFLRPWWLLAVPLAALLWWARRGERGAPGRDLRIAPALLPYLVLRTPGSRGPRPIDALALFLALGGVAAAGPAWQRDEPAYLDNVAPLIVALDLSASMDGADVPPTRLEAARRVLRDLAARRAAARTGLIAYAGSSHLVLPPTDDAALLDLFAQALATGLIERPGRDADGAIALAAQALAAERAGGTLLILTDGADRARMDAVRRQAQAARDMQVLVMAVGVNGIDTQALQELARAAGAALGSLTGGPDDQDWIALHAQAHFRAVQDAQSGPVHWKDAGYWLCWPLALLALLAVRRGWSVAWSAGVLVVAMAGMPQPARADALADAFLTADQQGRRAFEHGRYDAAARHFHDPNWKGRAAYQAGDYRAALAAFSTLPSAEGYFYVGNTQTRLHRYDAALAAYDRALALRPGWQPAVVNRGIVARLLAAMAQTQQDQPAEPPDRTIADRSAQAGKMSQAPVAQAGSEEAWLRNLTLSPARFLRSKFAVEDAAAGTRP” stands “failed”.

Values taken from a protein production outcome set (Wang et al. 2014).
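Note: failed if final PepcDB status was selected cloned or expressed and not failed if soluble or beyond.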
